Results taken from paper PMC9224989, “Structural Analysis of Human Fascin-1: Essential Protein for Actin Filaments Bundling” (Life, 2022).

Molecular target: the molecule itself
Assay: native gel or EMSA; 8% native PAGE; equal amounts (2.5 μg) of FLF and CHF mixed and incubated for 1 h at 4 °C; lanes CHF, FLF, FLF + CHF

B1: C-terminal half of human fascin 1 (CHF) (domain or fragment)
chain: not shown
notes: human fascin 1, residues 260-493 (beta3 and beta4-trefoil domains); also called N-terminal domain deletion (beta-trefoil 1 and 2); C-domain; not shown: His tag (from the vector pFastBacHT)
  stoichiometry N: 2
